This sample holds only a part of the variants without activity.
B1: TPR 5TU (parent)
chain: GGAUCUUCUCGAUCUAACAAAAAAGACAAAUCUGCCACAAAGCUUGAGAGCAUCUUCGGAUGCAGAGGCGGCAGCCUUCGGUGGCGCGAUAGCGCCAACGUUCUCAACUAUGACACGCAAAACGCGUGCUCCGUUGAAUGGAGUUUAUCAUG

Variants of: B1
Experiment: polymerase ribozyme fitness, log enrichment relative to wild type (log ratio); higher = more active; in vitro selection for triplet polymerase activity
Outline: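 Fitness measures genotype enrichment against wild-type enrichment on a logarithmic scale, with inverse-variance-weighted averaging of replicates. The logarithm is base 2, and genotypes were kept only with ≥10 input reads and ≥1 read per output in Illumina sequencing. The sequenced libraries came from one triplicate in vitro selection round, including frozen incubation at −7 °C, of PCR-built, transcribed mutant libraries of each subunit of a heterodimeric triplet polymerase ribozyme.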

| Variant | polymerase ribozyme fitness (log ratio) |
| --- | --- |
| U53C G58A C99G | -0.95 |
| A52U G80C G126A G133C | ≤ -4.2 |
| A52G C69G C85G A97U G126A G141U | ≤ -4.2 |
| C54A C87G A98G | ≤ -4.2 |
| A52G U56A C87A C93A A113G U135A | ≤ -4.2 |
| A52C U55A A91G U111A U139G | ≤ -4.2 |
| U53A G80C | ≤ -4.2 |
| A52C G80C G84U C93U | ≤ -4.2 |
| U53C U55A C99U U111C | ≤ -4.2 |
| C54A G92A | ≤ -4.2 |
| U53A C85U G133C | -2.22 |
| C54A C116G | -0.685 |
| U53A C72G C85U U127A | ≤ -4.2 |
| A52U G92C | -2.01 |
| C54A G94C G141A | -3.13 |
| C54U A122U | 0.0261 |
| U53A C76G G92A A107C G124U C149A | ≤ -4.2 |
| U53A C96G | -2.55 |
| C54A A91U U109C G140U U146C | ≤ -4.2 |
| A52G C57U C75G A91U C95G C123A | -4.05 |
| C54A G59A C87U | -1.95 |
| C54A G94U C105U | -2.47 |
| U53A G83U A147C | -1.91 |
| A52C G71A C85A G94C G141U | ≤ -4.2 |

| Variant | polymerase ribozyme fitness (log ratio) |
| --- | --- |
| U53A G152U | -3.33 |
| A52U U55A A115U C118A G126U A150U | ≤ -4.2 |
| C54A U55G A107U U109C G117A C118U A121C | ≤ -4.2 |
| C54A U101G C108U A115U G117U C129U G133A | ≤ -4.2 |
| U53G A60U C69U C131G | ≤ -4.2 |
| A52G C54A C69A C87G U90C G100U C103A C105G | ≤ -4.2 |
| U53A C99U U134A | -3.7 |
| U53G A137G | -2.32 |
| U53G G58A | -1.53 |
| A52U U101G | -2.22 |
| A52G A142U | -0.597 |
| A52C U55A C72U A98U | -3.14 |
| C54G G83U G141U | -1.56 |
| U53G C76A U134A | ≤ -4.2 |
| C54A U61A C93G C149G | ≤ -4.2 |
| U53C C72U C132U | -3.52 |
| U53A U144A | -1.56 |
| C54G C76A C85G | -2.78 |
| A52G A60G C85A C95G A97G U102A C125A | ≤ -4.2 |
| U53A C75U G84C | -2.82 |
| A52U C96U G100A A147C | ≤ -4.2 |
| C54U A115U | -2.4 |
| U53A U56G A115U A120G | -2.77 |
| U53G G59U C125U G141C | -3.86 |

| Variant | polymerase ribozyme fitness (log ratio) |
| --- | --- |
| C54U A66U C85U | ≤ -4.2 |
| A52G A106C | -0.69 |
| U53G G58C C95G A122U | ≤ -4.2 |
| A52G G152C | -3.59 |
| A52C G70A | -3.92 |
| C54A A64C C85A G92U A121U C125G U134G U139G | ≤ -4.2 |
| U53G G141C | -2.53 |
| A52G G59A G92A | -3.59 |
| C54G C95G | -2.56 |
| A52U C76U G86C G126C G152U | ≤ -4.2 |
| U53A C57A U102G C125A U134A | ≤ -4.2 |
| C54A U56A | -1.31 |
| U53A G71A C75G C76U G86A A107U C108U | ≤ -4.2 |
| C54A C85U C149G G152U | -4.15 |
| C54G U146G | -2.99 |
| C54A G86U A110C | ≤ -4.2 |
| U53C C57G U61A G124A G128U | -4.14 |
| C54U A91C G92U C105U G133U | ≤ -4.2 |
| C54A G70A C95U A120G | -3.62 |
| C54U A73G G83U C95G G100U U135A | ≤ -4.2 |
| U53A G94C | -1.3 |
| C54A C57G C87U A150G | -3.99 |
| U53A C76U | -1.36 |
| A52G C57A A66G G68C C93U U101G G112U G140C U145A | ≤ -4.2 |

| Variant | polymerase ribozyme fitness (log ratio) |
| --- | --- |
| U53G C54G C85A U134A | ≤ -4.2 |
| U53C A150G | -1.01 |
| A52G U77G A91C | ≤ -4.2 |
| U53A U55A | -2.2 |
| A52G C76A | -0.0301 |
| U53G C125U | -1.66 |
| A52C G84A U130C | -0.715 |
| A52U G84A | -2.18 |
| C54U C57U G100C | ≤ -4.2 |
| A52G G141U U145C G152A | -2.27 |
| U53A G94C C105A C118U | ≤ -4.2 |
| C54U A64G C116G U139G | ≤ -4.2 |
| A52G U55G G58A C95G U134A U139A | ≤ -4.2 |
| A52U U53A C57A G81U G83C C103G G126A | ≤ -4.2 |
| C54A A91G A120G | -3.57 |
| A52G A150C | -3.43 |
| A52C G84U U144G | -2.05 |
| U53C C72A U139C A150G | ≤ -4.2 |
| C54A C95U | -2.22 |
| A52G G71C C95A C131A U139A | ≤ -4.2 |
| U53A C85U A137G A142C | -3.93 |
| C54A G83U | -1.19 |
| A52C G71C | ≤ -4.2 |
| C54A C57U C95U | -1.9 |

| Variant | polymerase ribozyme fitness (log ratio) |
| --- | --- |
| C54G A89U A147C | -2.1 |
| C54A U144A | -1.74 |
| A52G A97U | -0.8 |
| U53G C63U G80C G81C G84U G100U | ≤ -4.2 |
| U53A C118U U134C G141A U146C | -0.702 |
| C54A U56G C95A A120G | -1.33 |
| U53A C54U C85G | -2.55 |
| U53A G81A C99U | -2.36 |
| C54G C108U | -4.19 |
| U53A G83A | -1.64 |
| C54A C96G A97C G143C | ≤ -4.2 |
| A52G C125U C131U G143U U146G | ≤ -4.2 |
| C54G G68U C87A U104G | ≤ -4.2 |
| A52G U53G | -3.21 |
| C54G C95A C118G | -2.03 |
| U53G A73G C85U G126U | -2.37 |
| A52G C57A G84A | -0.599 |
| C54G G59C G83U C87U G94A U102C U148G | ≤ -4.2 |
| U53A C87A A89U G141C | ≤ -4.2 |
| C54G G92A C132A | ≤ -4.2 |
| U53A C57G G74C C87A C93A C149A | ≤ -4.2 |
| A52U U53A C57A G58C A89U | 0.000593 |
| A52C U53A U148G | ≤ -4.2 |
| A52C G88A | -3.57 |

| Variant | polymerase ribozyme fitness (log ratio) |
| --- | --- |
| U53A G92C U102C | -3.58 |
| U53A C132U | -1.73 |
| U53A G86C A91U | ≤ -4.2 |
| A52G G100U | -3.98 |
| U53A U82G G100A | ≤ -4.2 |
| A52G A106G G143A | -0.542 |
| U53A U148C | -3.4 |
| U53A U148A | -3.17 |
| U53A G70C C76A G86U A98U | ≤ -4.2 |
| C54G A97C G124A | -0.735 |
| U53A G67C C76G G84A C114U | -4.1 |
| U53C G143U | -2.74 |
| C54A U56A C85G U101C U134A U148C | ≤ -4.2 |
| A52G G70A C96A U102G C129G G143A U146A | ≤ -4.2 |
| A52G G136U A142G | -3.58 |
| C54G A97G | -0.818 |
| C54G C75A | ≤ -4.2 |
| C54G C75U | -1.86 |
| U53G G83U G86A U104C | ≤ -4.2 |
| A52G U53A G84A | -0.8 |
| U53G A64U C69U C76U A98U C108A | ≤ -4.2 |
| C54G C99G G136U | -3.14 |
| A52C U61A G65A C95A G141U | -2.36 |
| C54A U55A U77G A121C A137U | ≤ -4.2 |

| Variant | polymerase ribozyme fitness (log ratio) |
| --- | --- |
| A52G C69U A106C C125U | -4.12 |
| C54G A89C C123G C131A | ≤ -4.2 |
| U53A C85G G133C A150C | ≤ -4.2 |
| A52G C85U | -0.204 |
| A52G C85G | -2.16 |
| A52G U53G A106C A119U G136U | ≤ -4.2 |
| U53A G136A | -0.321 |
| U53A G81C C85G C108U A138G A147G A150U G152U | -3.91 |
| U53A U55A C95A A98G C123U G143C | -3.34 |
| U53A U61A C85U A97U C108U | ≤ -4.2 |
| A52G C72U G81A G86A C103G A122C | ≤ -4.2 |
| A52G G62A C76U U145A | -2.04 |
| C54G A60G C95G | -2.44 |
| C54U A60C C99U | -3.17 |
| A52G A106U U135A | -1.7 |
| U53A G88U | ≤ -4.2 |
| C54U A66G C72U G81C C96A A107G G133U U145A | ≤ -4.2 |
| U53A G59A C85G C149U | -3.31 |
| U53A U61A A106U C129U | -3.27 |
| U53G A97G | -1.44 |
| U53G C87A A120U A142U U146A | ≤ -4.2 |
| A52U G143U U148A | -4.01 |
| U53A A107U U144G | -2.6 |
